The assay concerns the target ALK-1/BMPR-2 receptor pair of the PathHunter U2Os dimerization cells (DiscoverX 93-0962C3) (UniProt P37023). The assay is described as follows: cell-based or functional assay.

One may read the EC50 as the concentration giving half of the maximal effect. Low readings indicate higher potency in that assay, high ones lower potency in that assay.

ALK-1/BMPR-2 receptor pair of the PathHunter U2Os dimerization cells (DiscoverX 93-0962C3), sequence (P37023 22-503, chain 1 of 2): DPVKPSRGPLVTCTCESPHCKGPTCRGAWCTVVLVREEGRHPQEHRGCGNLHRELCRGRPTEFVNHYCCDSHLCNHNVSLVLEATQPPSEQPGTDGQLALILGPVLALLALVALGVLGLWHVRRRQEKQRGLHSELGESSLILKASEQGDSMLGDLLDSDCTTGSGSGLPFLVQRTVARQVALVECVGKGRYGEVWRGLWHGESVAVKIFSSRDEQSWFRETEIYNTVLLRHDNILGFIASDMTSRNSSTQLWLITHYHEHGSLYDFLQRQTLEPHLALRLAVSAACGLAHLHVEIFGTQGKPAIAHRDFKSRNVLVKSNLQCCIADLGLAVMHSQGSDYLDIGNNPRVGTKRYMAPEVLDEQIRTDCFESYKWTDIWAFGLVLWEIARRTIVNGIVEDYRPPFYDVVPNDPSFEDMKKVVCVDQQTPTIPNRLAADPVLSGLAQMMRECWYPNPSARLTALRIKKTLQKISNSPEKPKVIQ
ALK-1/BMPR-2 receptor pair of the PathHunter U2Os dimerization cells (DiscoverX 93-0962C3), sequence (Q13873 27-1038, chain 2 of 2, further chain): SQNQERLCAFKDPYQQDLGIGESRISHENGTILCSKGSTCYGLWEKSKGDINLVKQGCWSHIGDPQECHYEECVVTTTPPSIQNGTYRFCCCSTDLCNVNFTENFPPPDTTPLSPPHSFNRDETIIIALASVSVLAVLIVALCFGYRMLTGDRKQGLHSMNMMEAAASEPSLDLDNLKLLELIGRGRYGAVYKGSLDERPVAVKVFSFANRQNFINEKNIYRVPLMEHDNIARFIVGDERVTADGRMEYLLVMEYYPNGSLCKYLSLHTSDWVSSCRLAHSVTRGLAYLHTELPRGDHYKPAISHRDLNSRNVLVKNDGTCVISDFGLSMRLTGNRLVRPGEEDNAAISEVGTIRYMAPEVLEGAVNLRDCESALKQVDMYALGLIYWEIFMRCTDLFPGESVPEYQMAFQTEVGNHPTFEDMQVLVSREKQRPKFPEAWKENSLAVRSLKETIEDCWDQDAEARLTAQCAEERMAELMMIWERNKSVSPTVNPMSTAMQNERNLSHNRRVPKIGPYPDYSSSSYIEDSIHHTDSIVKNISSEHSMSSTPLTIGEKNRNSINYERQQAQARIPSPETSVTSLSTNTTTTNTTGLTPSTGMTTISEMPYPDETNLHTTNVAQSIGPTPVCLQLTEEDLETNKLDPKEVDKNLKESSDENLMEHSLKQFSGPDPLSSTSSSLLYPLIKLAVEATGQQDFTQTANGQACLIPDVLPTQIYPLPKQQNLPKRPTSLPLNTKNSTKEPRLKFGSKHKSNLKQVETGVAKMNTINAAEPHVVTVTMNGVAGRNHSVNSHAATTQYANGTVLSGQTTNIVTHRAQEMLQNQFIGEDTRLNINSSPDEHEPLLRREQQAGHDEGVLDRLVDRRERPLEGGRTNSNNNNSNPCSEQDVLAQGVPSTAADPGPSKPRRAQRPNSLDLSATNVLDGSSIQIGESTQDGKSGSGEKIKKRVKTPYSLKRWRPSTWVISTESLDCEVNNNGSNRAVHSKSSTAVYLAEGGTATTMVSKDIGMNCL

B1: BMP10 (ligand, UniProt O95393 317-424, looked up)
chain: NAKGNYCKRTPLYIDFKEIGWDSWIIAPPGYEAYECRGVCNYPLAEHLTPTKHAIIQALVHLKNSQKASKACCVPTKLEPISILYLDKGVVTYKFKYEGMAVSECGCR
In turn, B1 returned a % Emax BMP9 of 97%, an EC50 of 0.1 nM and an EMAX (RLU) of 2.57e+06 RLU.

B2: BMP9 (ligand, UniProt Q9UK05 320-429, looked up)
chain: SAGAGSHCQKTSLRVNFEDIGWDSWIIAPKEYEAYECKGGCFFPLADDVTPTKHAIVQTLVHLKFPTKVGKACCVPTKLSPISVLYKDDMGVPTLKYHYEGMSVAECGCR
As to B2, the % Emax BMP9 was 100%, the EC50 came out at 0.02 nM and the EMAX (RLU) was 2.64e+06 RLU.

For the origin of these results see US20250002588A1.
